Series [1] deals with the molecule itself. Briefly: native gel or EMSA; native-PAGE on ice (4% stacking, 17% separating gel, Tris-Gly pH 8.8); samples equilibrated overnight in 10 mM PB pH 7.2, 100 mM NaCl. (Mobility shift assays separate free from complexed probe on a gel.)
Series [2] concerns the molecule itself. Briefly: SEC; freshly purified protein, 20 mM sodium phosphate, 100 mM NaCl, pH 8.0; superdex 200, 4°C. In general terms: In gel filtration, larger molecules generally elute earlier.

B1: wild type TMV CP (tobacco mosaic virus coat protein) (natural protein)
chain: SYSITTPSQFVFLSSAWADPIELINLCTNALGNQFQTQQARTVVQRQFSEVWKPSPQVTVRFPDSDFKVYRYNAVLDPLVTALLGAFDTRNRIIEVENQANPTTAETLDATRRVDDATVAIRSAINNLIVELIRGTGSYNRSSFESSSGLVWTSGPAT
notes: also called WT TMV CP; wild TMV CP
Take B1: in series [1], the binding result is “binds”.

B2: N-His-TMV CP^19 (tobacco mosaic virus coat protein, N-terminal six-His tag, C-terminal residues 155-158 truncated) (domain or fragment)
chain: SYSITTPSQFVFLSSAWADPIELINLCTNALGNQFQTQQARTVVQRQFSEVWKPSPQVTVRFPDSDFKVYRYNAVLDPLVTALLGAFDTRNRIIEVENQANPTTAETLDATRRVDDATVAIRSAINNLIVELIRGTGSYNRSSFESSSGLVWTS
notes: Tobacco mosaic virus (common strain) coat protein, residues 1-154; Gly155, Pro156, Ala157 and Thr158 deleted at the C-terminus; no tag cleavage is described; Oligomeric state depends on buffer: monomer and dimer, 20S, disks, four-layer aggregate, rods; also called genetically engineered TMV CP; truncated TMV CP; source: E. coli BL21 (DE3) RIL, purified (HisTrap, gel filtration on superdex 200); …
For orientation: stoichiometry N means the number of molecules, sites or subunits per partner or assembly. In the case of B2, the “stoichiometry N” value in series [2] is 2.

For the origin of these results see paper PMC3817195, “Crystal Structure of a Four-Layer Aggregate of Engineered TMV CP Implies the Importance of Terminal Residues for Oligomer Assembly” (PLoS ONE, 2013).
